From PMC9184547, “Distinct dissociation rates of murine and human norovirus P-domain dimers suggest a role of dimer stability in virus-host interactions” (Communications Biology, 2022)

Legend:
[1] = molecular target: T1, MNV CW1 P-domain (MNV-1 P-dimer) (Murine norovirus 1, UniProt Q80J94); assay: methyl TROSY NMR titration, TITAN global lineshape analysis; type: binding
T1 construct: gene ORF2; MBP-His8 fusion from E. coli BL21(DE3), cleaved with HRV3C; MIL(proS)V(proS)A 13C-methyl labelled for NMR

[2] = molecular target: T1, MNV CW1 P-domain (MNV-1 P-dimer); assay: differential scanning fluorimetry (SYPRO orange); type: binding; settings: pH 5.3, 20 mM sodium acetate, 100 mM NaCl; 3 µM protein; stabilisation rises with ligand concentration
[3] = molecular target: GII.4 Saga P-domain deamidated at position 373 (iso-aspartate, iD) (human norovirus GII.4 Saga); assay: ion-exchange chromatography of exchanging dimers; 373iD/iD and 373Q/Q dimers mixed 1:1, total 1.24 mg/ml, 75 mM sodium phosphate, 100 M NaCl (so in the source), 0.02% NaN3, pH 7.3, 298 K; aliquots over 38 days on analytical cation exchange chromatography; fraction of mixed dimers fitted to an exponential; dimer to monomers
[4] = molecular target: GII.4 Saga P-domain (native, non-deamidated) (human norovirus GII.4 Saga); assay: native MS; 150 mM ammonium acetate pH 7.3, purified GII.4 Saga P-domain, 25 C, also at low protein concentration
[5] = molecular target: the molecule itself; assay: SEC-MALS; Superdex 75 10/300 GL, 10-200 uM protein, 20 mM sodium acetate, 100 mM NaCl, pH 5.3
[6] = molecular target: the molecule itself; assay: native MS; 150 mM ammonium acetate pH 5.3, 2-92 uM purified P-domain, 25 C; relative dimer peak area against total protein fitted; dimer to monomers
[7] = molecular target: the molecule itself; assay: NMR titration; 1H,15N TROSY HSQC spectra of [U-2H,15N] labeled P-domain at 24-200 uM protein; intensities of unassigned dimer cross-peaks; 298 K, 20 mM sodium acetate, 100 mM NaCl, pH* 5.3; dimer to monomers
[8] = molecular target: the molecule itself; assay: SEC; analytical Superdex 75 Increase 3.2/300, 20 mM sodium acetate, 100 mM NaCl, pH 5.3, 278 K; 250 nM-270 uM protein; apparent molecular weight against feed concentration fitted, apparent KD; lower limit from the 10x dilution; dimer to monomers
[9] = molecular target: the molecule itself; assay: NMR titration; methyl TROSY (1H,13C HMQC) spectra of MILproSVproSA labeled apo P-domain at six concentrations 12.5-226 uM; global two-dimensional lineshape analysis with TITAN (dimerization model); 298 K, 20 mM sodium acetate-d3, 100 mM NaCl, pH* 5.26 in D2O; dimer to monomers

**Q.** For `C[C@H](CCC(=O)NCC(=O)O)[C@H]1CC[C@H]2[C@@H]3[C@H](O)C[C@@H]4C[C@H](O)CC[C@]4(C)[C@H]3CC[C@]12C` [GCDCA, glycochenodeoxycholic acid], which Kd [1] is on record?
**A.** The Kd was 10.5 ± 0.5 µM.

**Q.** And the TM [2]?
**A.** Its TM is “thermostability of CW1 P-domains improves considerably with increasing GCDCA concentrations”.

**Q.** “GII.4 Saga P-domain point mutant N373Q (domain or fragment)” was tested. Which dimer half-life time [3] did it give?
**A.** The dimer half-life time was 127 h.

**Q.** And the koff [3]?
**A.** The koff was 1.51e-06 s⁻¹.

**Q.** “GII.4 Saga P-domain (native, non-deamidated) (domain or fragment)” was tested. Which stoichiometry N [4] did it give?
**A.** The stoichiometry N was 2.

B1: MNV-1 (CW1) P-domain (domain or fragment)
chain: TIYRMVDLPVIQPRLCTHARWPAPVYGLLVDPSLPSNPQWQNGRVHVDGTLLGTTPISGSWVSCFAAEAAYKFQSGTGEVATFTLIEQDGSAYVPGDRAAPLGYPDFSGQLEIEVQTETTKTGDKLKVTTFEMILGPTTNADQAPYQGRVFASVTAAASLDLVDGRVRAVPRSIYGFQDTIPEYNDGLLVPLAPPIGPFLPGEVLLRFRTYMRQIDTADAAAEAIDCALPQEFVSWFASNAFTVQSEALLLRYRNTLTGQLLFECKLYNEGYIALSYSGSGPLTFPTDGIFEVVSWVPRLYQLASVGSLATGRMLKQ
notes: Protruding (P)-domain of the major capsid protein VP1 of murine norovirus MNV-1 (CW1); construct truncated at the C-terminus compared to prior work; Monomer-dimer equilibrium in solution; Used unlabeled, [U-2H,15N] labeled or 13C-methyl (MILproSVproSA) labeled; also called MNV CW1 P-domain; MNV.CW1 P-domain; source: E. coli BL21 DE3, purified (Ni-NTA, HRV3C cleavage, Ni-NTA, SEC at pH 5.3)
**Q.** For B1, which “stoichiometry N” value [5] is on record?
**A.** The value was 2.

**Q.** What about the Kd [6] of the same molecule?
**A.** The Kd was 32 µM.

**Q.** And the Kd [7]?
**A.** The Kd was about 31 µM.

**Q.** And the Kd [8]?
**A.** Its Kd is 4 to 40 µM.

**Q.** What about the Kd [9] of the same molecule?
**A.** The Kd was 6.9 µM.

**Q.** And the koff [9]?
**A.** Its koff is 1.25 s⁻¹.

**Q.** What about the kon [9] of the same molecule?
**A.** Its kon is 140000 M⁻¹ s⁻¹.
